Test results reported in article PMC8981990.

Target: PKM2 (pyruvate kinase M2 isoform) (human (endogenous in U87)) (UniProt P14618)
Test: cross-linking; cell lysates (100 ug) of U87, T98G or LN319 cells 10 h after release, glutaraldehyde 0.125%, 5 min, 37 C, Western blot for PKM2; vehicle or DASA-58 (40 uM, 3 h)

Sequence of PKM2 (pyruvate kinase M2 isoform), P14618 1-531 (natural protein; other documents disagree on this pair) (P14618 whole entry, canonical isoform): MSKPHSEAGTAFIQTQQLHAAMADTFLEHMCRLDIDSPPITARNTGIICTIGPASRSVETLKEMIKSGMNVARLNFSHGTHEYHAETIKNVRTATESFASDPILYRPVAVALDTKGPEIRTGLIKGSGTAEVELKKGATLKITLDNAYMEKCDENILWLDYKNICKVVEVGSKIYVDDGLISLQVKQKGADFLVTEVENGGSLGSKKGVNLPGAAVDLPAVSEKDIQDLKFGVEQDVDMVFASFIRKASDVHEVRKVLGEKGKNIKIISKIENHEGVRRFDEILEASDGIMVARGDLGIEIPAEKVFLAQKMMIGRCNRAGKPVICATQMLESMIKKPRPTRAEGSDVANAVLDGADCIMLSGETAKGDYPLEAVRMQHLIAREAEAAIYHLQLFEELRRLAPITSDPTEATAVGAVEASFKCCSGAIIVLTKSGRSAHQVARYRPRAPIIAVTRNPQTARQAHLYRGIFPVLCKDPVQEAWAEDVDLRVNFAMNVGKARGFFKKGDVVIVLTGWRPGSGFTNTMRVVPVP

stoichiometry N: 2
Substance: PKM2 (pyruvate kinase M2 isoform), P14618 1-531 (natural protein; other documents disagree on this pair)
